In patent US20050118674A1, “Engineering of Controlled Deamidation Rates in Peptides, Proteins, and Similar Structures” (priority 2003, published 2005):

assay: First-order nonenzymatic deamidation of pentapeptides in Tris buffer; format: physicochemical; details: pH 7.4, 37.0° C., 0.15 M Tris HCl; Asn pentapeptides
Outline: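 Pentapeptides containing Asn or Gln in varied flanking sequences incubated at 37° C., pH 7.4, 0.15 M Tris buffer; first-order deamidation rates measured. Some Asn values estimated from remaining data; many Gln values derived from surface fitting rather than measured.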

Substance	First-Order Deamidation Halftimes of GlyXxxAsnYyyGly [days]
GlyGlyAsnAlaGly (GGNAG; printed: GlyGlyAsnAlaGly)	21.1
GlyGlyAsnAmCysGly	27.6
GlyGlyAsnArgGly (GGNRG; printed: GlyGlyAsnArgGly)	57.8
GlyGlyAsnAspGly (GGNDG; printed: GlyGlyAsnAspGly)	28.0
GlyGlyAsnCysGly (GGNCG; printed: GlyGlyAsnCysGly)	40.6
GlyGlyAsnGluGly (GGNEG; printed: GlyGlyAsnGluGly)	73.9
GlyGlyAsnGlyGly (GGNGG; printed: GlyGlyAsnGlyGly)	1.03
GlyGlyAsnHisGly (GGNHG; printed: GlyGlyAsnHisGly)	9.2
GlyGlyAsnIleGly (GGNIG; printed: GlyGlyAsnIleGly)	287
GlyGlyAsnLeuGly (GGNLG; printed: GlyGlyAsnLeuGly)	104
GlyGlyAsnLysGly (GGNKG; printed: GlyGlyAsnLysGly)	48.2
GlyGlyAsnMetGly (GGNMG; printed: GlyGlyAsnMetGly)	50.4
GlyGlyAsnPheGly (GGNFG; printed: GlyGlyAsnPheGly)	64.0
GlyGlyAsnProGly (GGNPG; printed: GlyGlyAsnProGly)	7170
GlyGlyAsnSerGly (GGNSG; printed: GlyGlyAsnSerGly)	11.8
GlyGlyAsnThrGly (GGNTG; printed: GlyGlyAsnThrGly)	39.8
GlyGlyAsnTrpGly (GGNWG; printed: GlyGlyAsnTrpGly)	77.1
GlyGlyAsnTyrGly (GGNYG; printed: GlyGlyAsnTyrGly)	63.6
GlyGlyAsnValGly (GGNVG; printed: GlyGlyAsnValGly)	224

Substance	First-Order Deamidation Halftimes of GlyXxxAsnYyyGly [days]
GlyHisAsnAlaGly (GHNAG; printed: GlyHisAsnAlaGly)	24.6
GlyHisAsnAmCysGly	33.8
GlyHisAsnArgGly (GHNRG; printed: GlyHisAsnArgGly)	48.9
GlyHisAsnAspGly (GHNDG; printed: GlyHisAsnAspGly)	31.2
GlyHisAsnCysGly (GHNCG; printed: GlyHisAsnCysGly)	43.9
GlyHisAsnGluGly (GHNEG; printed: GlyHisAsnGluGly)	69.4
GlyHisAsnGlyGly (GHNGG; printed: GlyHisAsnGlyGly)	1.14
GlyHisAsnHisGly (GHNHG; printed: GlyHisAsnHisGly)	10.7
GlyHisAsnIleGly (GHNIG; printed: GlyHisAsnIleGly)	327
GlyHisAsnLeuGly (GHNLG; printed: GlyHisAsnLeuGly)	116
GlyHisAsnLysGly (GHNKG; printed: GlyHisAsnLysGly)	50.2
GlyHisAsnMetGly (GHNMG; printed: GlyHisAsnMetGly)	63.1
GlyHisAsnPheGly (GHNFG; printed: GlyHisAsnPheGly)	72.1
GlyHisAsnProGly (GHNPG; printed: GlyHisAsnProGly)	8440
GlyHisAsnSerGly (GHNSG; printed: GlyHisAsnSerGly)	15.7
GlyHisAsnThrGly (GHNTG; printed: GlyHisAsnThrGly)	47.2
GlyHisAsnTrpGly (GHNWG; printed: GlyHisAsnTrpGly)	95.4
GlyHisAsnTyrGly (GHNYG; printed: GlyHisAsnTyrGly)	82.3
GlyHisAsnValGly (GHNVG; printed: GlyHisAsnValGly)	247

same assay, conditions: pH 7.4, 37.0 ° C., 0.15 M Tris HCl; Gln pentapeptides; 52 values measured, rest derived from surface fitting

Substance	First-Order Deamidation Halftimes of GlyXxxGlnYyyGly [days]
GlyGluGlnTrpGly (GEQWG; printed: GlyGluGlnTrpGly)	17000
GlyGluGlnTyrGly (GEQYG; printed: GlyGluGlnTyrGly)	13000
GlyGluGlnValGly (GEQVG; printed: GlyGluGlnValGly)	6400
GlyGlyGlnAlaGly (GGQAG; printed: GlyGlyGlnAlaGly)	5900
GlyGlyGlnArgGly (GGQRG; printed: GlyGlyGlnArgGly)	7200
GlyGlyGlnAspGly (GGQDG; printed: GlyGlyGlnAspGly)	7600
GlyGlyGlnCysGly (GGQCG; printed: GlyGlyGlnCysGly)	1900
GlyGlyGlnGluGly (GGQEG; printed: GlyGlyGlnGluGly)	7300
GlyGlyGlnGlyGly (GGQGG; printed: GlyGlyGlnGlyGly)	650
GlyGlyGlnHisGly (GGQHG; printed: GlyGlyGlnHisGly)	5900
GlyGlyGlnIleGly (GGQIG; printed: GlyGlyGlnIleGly)	6300
GlyGlyGlnLeuGly (GGQLG; printed: GlyGlyGlnLeuGly)	6200
GlyGlyGlnLysGly (GGQKG; printed: GlyGlyGlnLysGly)	6000
GlyGlyGlnMetGly (GGQMG; printed: GlyGlyGlnMetGly)	4500
GlyGlyGlnPheGly (GGQFG; printed: GlyGlyGlnPheGly)	7600
GlyGlyGlnProGly (GGQPG; printed: GlyGlyGlnProGly)	10000
GlyGlyGlnSerGly (GGQSG; printed: GlyGlyGlnSerGly)	5700
GlyGlyGlnThrGly (GGQTG; printed: GlyGlyGlnThrGly)	5200
GlyGlyGlnTrpGly (GGQWG; printed: GlyGlyGlnTrpGly)	15000
GlyGlyGlnTyrGly (GGQYG; printed: GlyGlyGlnTyrGly)	12000
GlyGlyGlnValGly (GGQVG; printed: GlyGlyGlnValGly)	6500
